B1: Protein piccolo, residues 1058 to 1114; numbered along this chain, Q9Y6V0 (parent)
chain: TCPLCKTELNIGSKDPPNFNTCTECKNQVCNLCGFNPTPHLTEIQEWLCLNCQTQRA

± gives the uncertainty stated by the source.

Data on 46 variants can be found in the Human Domainome abundance scans (Beltran et al. 2025).

The variants in this data set derive from B1. Kind of data set: abundance fitness (aPCA) (normalised: wild type 0, dead -1); higher = more abundant; growth selection in yeast, the domain comes from the species named. Particulars: Homo sapiens.
Regarding TCPLCKTELNIGSKDPPNFNTCTECKNQWCNLCGFNPTPHLTEIQEWLCLNCQTQRA [V29W], the abundance fitness was -0.131 ± 0.097.
In the case of TCPLCKTELNIGSKDPPNFNTCTECKNQDCNLCGFNPTPHLTEIQEWLCLNCQTQRA [V29D] it was -0.32 ± 0.092; in that of TCPLCKTELNIGSKDPPNFNTCTECKNQVCNLQGFNPTPHLTEIQEWLCLNCQTQRA [C33Q], -0.623 ± 0.17.
In the case of TCPLCKTELNIGSKDPPNFNTCTEAKNQVCNLCGFNPTPHLTEIQEWLCLNCQTQRA [C25A] it was -0.784 ± 0.1; in that of TCPLCKTELNIGSKDPPNFNTCTEDKNQVCNLCGFNPTPHLTEIQEWLCLNCQTQRA [C25D], -0.834 ± 0.18.
Then TCPLCKTELNIGSKDPPNFNTCTEGKNQVCNLCGFNPTPHLTEIQEWLCLNCQTQRA [C25G], with -0.682 ± 0.083; and TCPLCKTELNIGSKDPPNFNTCTEKKNQVCNLCGFNPTPHLTEIQEWLCLNCQTQRA [C25K], with -0.808 ± 0.24.
As to TCPLCKTELNIGSKDPPNFNTCTEMKNQVCNLCGFNPTPHLTEIQEWLCLNCQTQRA [C25M], the abundance fitness was -0.742 ± 0.14.
Then TCPLCKTELNIGSKDPPNFNTCTECKNQVCNLCGFNPTPHLEEIQEWLCLNCQTQRA [T42E], with -0.122 ± 0.16.
Then TCPLCKTELNIGSKDPPNFNTCTECKNQVCNLCGFNPTPHLSEIQEWLCLNCQTQRA [T42S], with -0.011 ± 0.11.
TCPLCKTELNIGSKDPPNFNTCTECKNQVCNLCGFNPTPHLTEIQEWLCLVCQTQRA [N51V]: the abundance fitness is -0.326 ± 0.11.
Then TCPLCKTELNIGSKDPPNFNKCTECKNQVCNLCGFNPTPHLTEIQEWLCLNCQTQRA [T21K], with 0.198 ± 0.15; and TCPLCKTELNIGSKDPPNFNSCTECKNQVCNLCGFNPTPHLTEIQEWLCLNCQTQRA [T21S], with 0.083 ± 0.11.
In the case of TCPLCKTELNIGSKDPPNFNTCTECKNQVCNLCGFNPTPHLTEIQEWLCLNCTTQRA [Q53T] it was -0.067 ± 0.22.
In the case of TCPLCKTELNIGSKDPPNFNTCTECKNQVCNLCGFNPTPHLTEIQEWLCLNCSTQRA [Q53S] it was 0.028 ± 0.12; in that of TCPLCKTELNIGSKDPPNFNTCTECKNQVCNLCGFNPTPHLTEIQEWLCLNCATQRA [Q53A], -0.249 ± 0.17.
For the variant TCPLCKTELNIGSKDPPNFNTCTECKNQVCNLCGFNPTPHLTEIQEWLCLNCWTQRA [Q53W], the abundance fitness was -0.383 ± 0.12.
Turning to TCPLCKTELNIGSKDPPNFNTCTECKNQVCNLCGFNPTPHLTQIQEWLCLNCQTQRA [E43Q], the abundance fitness was -0.167 ± 0.18.
Then TCPLCKTELNIGSKDPPNFNTCTECKNQVCNLCGFNPTPHLTHIQEWLCLNCQTQRA [E43H], with -0.671 ± 0.36.
In the case of TCPLCKTELNIGSKDPPNFNTCTECKNQVCNLCGFNPTPHLTTIQEWLCLNCQTQRA [E43T] it was -0.091 ± 0.18.
In the case of TCPLCKTELNIGSKDPPNFNTCTECKNQVCNLCGFNPTPLLTEIQEWLCLNCQTQRA [H40L] it was -0.02 ± 0.088; in that of TCPLCKTELNIGSKDPPNFNTCTECKNQVCNLCGFNPTPPLTEIQEWLCLNCQTQRA [H40P], 0.085 ± 0.13.
Regarding TCPLCKTELNIGSKDPPNFNTCTECKNQVCNLCGFNDTPHLTEIQEWLCLNCQTQRA [P37D], the abundance fitness was found to be 0.247 ± 0.3.
For TCPLCKTELNIGSKDPPNFNTCTECKNQVCNLCGFNQTPHLTEIQEWLCLNCQTQRA [P37Q], the abundance fitness was found to be 0.097 ± 0.17.
TCPLCKTELNIGSKVPPNFNTCTECKNQVCNLCGFNPTPHLTEIQEWLCLNCQTQRA [D15V]: the abundance fitness stood at 0.001 ± 0.087.
Then TCPLCKTELNIGSKSPPNFNTCTECKNQVCNLCGFNPTPHLTEIQEWLCLNCQTQRA [D15S], with -0.051 ± 0.1; and TCPLCKTELNIGSKMPPNFNTCTECKNQVCNLCGFNPTPHLTEIQEWLCLNCQTQRA [D15M], with -0.053 ± 0.13; and TCPLCKTELNIGSKIPPNFNTCTECKNQVCNLCGFNPTPHLTEIQEWLCLNCQTQRA [D15I], with 0.01 ± 0.16.
In the case of TCPLCYTELNIGSKDPPNFNTCTECKNQVCNLCGFNPTPHLTEIQEWLCLNCQTQRA [K6Y] it was -0.18 ± 0.16; in that of TCPLCITELNIGSKDPPNFNTCTECKNQVCNLCGFNPTPHLTEIQEWLCLNCQTQRA [K6I], -0.087 ± 0.13; in that of TCPLCKTELNIGSKDPPNFNTCTECKNQVCNLCGFNPTPHLTEISEWLCLNCQTQRA [Q45S], -0.037 ± 0.12.
In the case of TCPLCKTELNIGSKDPPNFNTCTECKNQVCNCCGFNPTPHLTEIQEWLCLNCQTQRA [L32C] it was -0.017 ± 0.13; in that of TCPLCKTELNIGSKDPPNFNTCTECKNQVCNDCGFNPTPHLTEIQEWLCLNCQTQRA [L32D], -0.032 ± 0.2.
As to TCPLCKTELNIGSKDPPNFNTCTECKNQVCMLCGFNPTPHLTEIQEWLCLNCQTQRA [N31M], the abundance fitness is -0.147 ± 0.15.
In the case of TCPLCKTELNIGSKDPPNFNTCTECKNQVCHLCGFNPTPHLTEIQEWLCLNCQTQRA [N31H] it was 0.118 ± 0.18; in that of TCPLCKTELNIGSKDPPNFNTCTECKNQVCELCGFNPTPHLTEIQEWLCLNCQTQRA [N31E], 0.148 ± 0.15; in that of TCPQCKTELNIGSKDPPNFNTCTECKNQVCNLCGFNPTPHLTEIQEWLCLNCQTQRA [L4Q], 0.028 ± 0.19.
In the case of TCPWCKTELNIGSKDPPNFNTCTECKNQVCNLCGFNPTPHLTEIQEWLCLNCQTQRA [L4W] it was -0.576 ± 0.13; in that of TCPMCKTELNIGSKDPPNFNTCTECKNQVCNLCGFNPTPHLTEIQEWLCLNCQTQRA [L4M], 0.075 ± 0.1.
In the case of TCPKCKTELNIGSKDPPNFNTCTECKNQVCNLCGFNPTPHLTEIQEWLCLNCQTQRA [L4K] it was -0.569 ± 0.23.
For TCPLCKTELNILSKDPPNFNTCTECKNQVCNLCGFNPTPHLTEIQEWLCLNCQTQRA [G12L], the abundance fitness was -0.039 ± 0.082.
In the case of TCPLCKTELNICSKDPPNFNTCTECKNQVCNLCGFNPTPHLTEIQEWLCLNCQTQRA [G12C] it was 0.077 ± 0.14; in that of TCPLCKTELNIGSKDPPNFNTCTECKWQVCNLCGFNPTPHLTEIQEWLCLNCQTQRA [N27W], 0.174 ± 0.11; in that of TCPLCKAELNIGSKDPPNFNTCTECKNQVCNLCGFNPTPHLTEIQEWLCLNCQTQRA [T7A], -0.063 ± 0.077.
Then TCPLCKNELNIGSKDPPNFNTCTECKNQVCNLCGFNPTPHLTEIQEWLCLNCQTQRA [T7N], with -0.007 ± 0.13; and TCPLCKIELNIGSKDPPNFNTCTECKNQVCNLCGFNPTPHLTEIQEWLCLNCQTQRA [T7I], with -0.31 ± 0.11.
